Reference: paper PMC2139828

What was measured:
Assay in all cases: SDS-PAGE under nonreducing conditions
[1] = molecular target: rFN(AC), recombinant human fibronectin isoform containing EDA but lacking EDB (human)
[2] = molecular target: rFN(BAC), recombinant human fibronectin isoform containing both EDA and EDB segments (human)
[3] = molecular target: rFN(C), recombinant human fibronectin isoform lacking both EDA and EDB segments (human)

Substance: rFN(AC), recombinant human fibronectin isoform containing EDA but lacking EDB (natural protein)
- stoichiometry N [1]: 2

Substance: rFN(BAC), recombinant human fibronectin isoform containing both EDA and EDB segments (natural protein)
- stoichiometry N [2]: 2

Substance: rFN(C), recombinant human fibronectin isoform lacking both EDA and EDB segments (natural protein)
- stoichiometry N [3]: 2
